In the DeepSol protein solubility set:

assay: soluble on expression in E. coli; label from the status in PepcDB or PDB records

| Sequence | soluble on expression in E. coli |
| --- | --- |
| MGSDKIHHHHHHMISEISHDVIWDLYEGEDYRDKILAEKWDVVFGEKILEMEDTLFVQSLRELELALKYAAARKDLETIKARFNLLLYTPELQGAKIKEILFQVLKFYNSFSIFALVSEKGVHRHAYVDFVTGGNYLSLIYHEDLPLNINSHTVFIDDVPPDFSPAGLGGRKIILGMDSTPKNNIPFVEIPPLRERKMDIPYMLDGVIKSLQFQGKTVKIDDDLTKLLIEYHWPGNTQEFLEKVYEIITLENPVDQAMKIASGIDEIKGLNLKEFVDSLVEFVEKKVIKKALEENEGNRKKVCEVLNMNYKTLSYKMKKYGLT | not soluble |
| MGSDKIHHHHHHMISMDEFIEFVRGGPLGPIKKWGTKWSLWPVHLVTACCGAELAHAFACGYDGERIGALNYGIARQTNLIIVEGAITRKMAKVLRITWEQMPDPKFVIVMGACGLQGGIFWNGYHMVKPSDVVPVDFFIPGCPPTPEALLRGIRQLQFKIETGEAKTSATFPEVPLEAGRKPRVLPKSPKKISKAPAVIVNAPKEVDWEFGQKLVEEIKAKVEAKSVTITGKNRIAVKVESDYIPRAAMRLREMGFDHVKNVNVIDVPNEDKFIVEYHFSSYSVKELMPVIVNVFADIPRENPRVKSLASMFPSADYMEREMHDFFGVIFEGNPWMGRKFLLAPDAPEFPLRKDFKLEEEVYVR | not soluble |
| MGSDKIHHHHHHMISMTQNNVEKWGTYEITLKGKAEGNPFTDVEIKAVFTSEAGDSFEVEGFYDGEDTFKIRFMPNRTGLWKYEVRSDIKDLDGMKGEFLCVDPSEGNHGPVRVCNTYHFCYEDGTPYHPFGTTLYAWVHQREELIQQTLESLRNSPFNKVRMCVFPKYYAYNREEPPMLPMSWREEDGRYQVEFNVKFFQHFERLVKELMDMGIEADVILFHPYDKWGFCSMPEEVDKAYLRYLIARISSYRNVWWSMANEYDLIKPQKDWDGYFHFIVEKDPYNHLRSVHQCFKFYDHTKPWITHASIQWQGSLRSWSGEPEIDIGINLIPKWREMYKKPVIIDECGYEGNIEYGWGNLPPQEMMNRFWEGVTSGGYVTHGETYYSEDEVLWWSKGGRLKGESPKRIAFLRTIIEEAPPFLKPIKLDPMMDWDVHCIGKEGEYYLIYFDINRPVKRTLKLPEGKYRVDLVDCWETEIHSLGIFQGQVVIRLPGKSYVALRIQKMENNDDWIILREDAKL | not soluble |
| MGSDKIHHHHHHMISTEYRPKSLLEEFVVCFYFNKSDNFEYADYANPTTNQEMFFNLGDDFELKNSIGQVTSQRSWISGLQSKSLPIKCSGRHITAGVIFKPWGLYAAFGINAKELANKTIYSKWLCDLSNELDNSEFSESQFFDLMEFNLLKSIKRSKMTKVMQKIVNEIEQENVFTLSEKLNRSKKTIIESFNKMIGLSPHKFYTLKCICETITLLQNNPTIKLTELAYNQGFYDQAHFIRVFKEHTGLTPKEFRNSIMKR | not soluble |
| MGSDKIHHHHHHMITAAVVTFHTSRKDLIRLIDCVLQSSVDKFFIIDNSTNDALRELESVSERITYIYSDNLGFGSGHNIAIDRAIDLGSDYHIIINPDIYWNGDIIEQLVQFMDQNKDCGLVMPKILYPNGEVQYLCKLLPTPLDLFGRRFIPFKMFQEKRNAWYEMHWSGYDKVMEVPSLSGCFMFIRTDILKKTGGFDKRFFMYAEDMDLCRRIGEITRTMYYPSVLVFHEYEKGSYKNRKLLKYHICSIIKYFNKWGWFIDKKRRKKNDYCLKLTEHIRN | not soluble |
| MGSDKIHHHHHHMITCQMIHKTYAAGHGERKVLRGLDFAISRGEHVGFLGRNGAGKTTLIKLLGGVEFPTAGTIRRRMTVSWPLGFGGGFQGSLTGYDNARFIARIYGMSYRDIADFVEDFTELGRQLRAPVKTYSQGMRARLAFALSMAIEFDCYLVDEVILVGDHRFHEKCRLELFGKRSDRALILASHNAALIREHCTRAMVLHDGRGTMHDDIDLALRHYEAL | not soluble |
| MGSDKIHHHHHHMITTARQLKDLIRNMSKKKSADAQILMRNYMMERFLERISLSEYKNQFILKGGMLVAAMVGLDARATMDLDATIKGTNVSVEDVEMIISQIISIPLDDGVSFRVKRISEIMEEADYPGVRVSMETKFDGVITPLKIDISTGDVITPREIKYKFNLMLEDRTIEVWAYNLETVLAEKLETVVSRNVTNTRMRDFYDIYILQKLYGEQLQKQVLWTALVATAKKRGTLDLIEAEDIREIFDEIESSPVMETLWKTYQKNYSYAADISWHAIVKSICALYGSILENMYNT | not soluble |
| MGSDKIHHHHHHMITTSNITMQFGVKPLFEKVSVKFGEGNRYGLIGANGSGKSTFMKILGGDLEQTAGEVAIENGLRLGKLRQDQFGYEDQRVIDVVMMGHTEMWAAMSERDAIYANLEATEDDYMRAADLEAKFAEYDGYTAEARAGELLMGVGIPVEQHFGPMSEVAPGWKLRVLLAQALFSNPDILLLDEPTNNLDINTIRWLEHVLNERNSTMIIISHDRHFLNSVCTHMADLDYNTIRIYPGNYDDYMIASAQARERQLSSNSKAKERIQELQEFVARFSANKSKARQATSRLKQVDKLKSEMVEVKPSSRQNPFIRFEMDDKFKLHRQAVEVEGLSKAYDNKVLFKDLNLILEAGARLAIIGPNGAGKTSLIKLLAGAFEPAYAEGLTADRGTIKWAEKAQIGYFAQDHEADFDSDATLTEWMREWGQEGDDEQVIRGTLGRLLFGGDEVGKPVRVLSGGEKGRMLYGKLILQKPNVMIMDEPTNHMDMESIESLNMALEKYKGTLIFVSHDRQFVSSLATHVLELDGKGGYDYYTGNYEDYLASKGLE | not soluble |
| MGSDKIHHHHHHMITVNDMSMQFSDRKLYSDVNLKFTPGNCYGIIGANGAGKSTFLKILEGKLQPTSGNVSISPNERMSSLNQDHYAFEEFTVMNTVIQGYKKLYEVMQAKDALYAKADFTEEDGMKAANLEAEFAEMDGWNAEAEASQLLQQLGIDESLHDSKMSELTEGQRIKVLLGQALFGKPDILILDEPTNGLDPKSISWLEDFLADFPNTVIVVSHDRHFLNSVCTMMCDVDFGKIELFVGNYDFWMESSALAKRLRENANAKKEEQIKELQEFVARFSANASKSKQATSRKKQLDKITLDDIKPSSRKYPFIRFEPARELGNDLVRVDKVSKSIDGVKILDNITFTVRPGEKAAILSQNDLATTVLMQILAGEMEPDSGSVTWGQTTERSYIPRDINSYFEDDRFDILEWLRQYAPKEESDNTFLRGFLGKMLFSGEDVLKNVTKLSGGEKVRCMISKTMLSKANVLILDDPTNHLDLESITALNEGLTSYKSSIIMTSHDHEFIQTIADHIIEVSDKGSVDRAETTYDEFLNHDAIQEQVSKLY | not soluble |
| MGSDKIHHHHHHMIVGIDVGGTNTDVAVLEGNVFQIKSFRTSEVIQNLSDFIEKNFGDAEAVGIGVAVWFVDGKPVKAPNLPAIPKMELDVPFIVDNDANCFAYFAAKTLNFRHLLAVTVGTGIGGGIVADGKIYRGRGAAGEIGHTFVGGRKRCRCGGEGHLEAYFGGWAMENVKELIDTGEIYSTAEFALFCRSLANAVMLLNPEAIALGGRIGGRLDERPLAEKVNRYLPEEIDVVVRVVKDDYAVAKGAALLALDTISQNLP | not soluble |
| MGSDKIHHHHHHMKAAVYEGKKAIKMTELPTPKAGPNDVVIQNIYAGICGSDVAVYNHGSGTGHKIETDHEFGHEAVSKVVEVGDDVHDFKIGDRVYPYPLLARGDPSRAGSMGGFSEYILIPNAKLNRQLYLVPKEIDNHVAAMIEPFTVGTRAAKQTRPDKNDNAIVYGTGTIGMAAAVALKHLGVKQVMLVDLSDYRLNVAKELGFLTVNSSRDDVRSQAIEAFGKAEYSLHGEAPDTQIFLDAAGHNSILEDFLQFGPVGSRFVTVGVNNSKPQIDFLELIFGSKSVGGSGGYRPEDVQTVFEIMKERQSDLRKMVSQEFDWQDLEKGIQTATDTTISEKVLINYHL | not soluble |
| MGSDKIHHHHHHMKADLHVHTCLSPCADLLMIPPVVERASGDVQILGIVDHNSAKNVPAFLKMKKLVVPGIEIQTVEDVHVLGFFSDIESALKVTKIVYEHLPSVKHDHEKMGYQLFVDEKGNYTGYEDVPLGFPSDLTLSQAVELIRSFGGIPVYAHVEKRFGVLYQLGFFPDLEIPVAEVVSREGKENAQKKNLRVIVTSDAHFPSDIGRRYIDISGAPNSPEEVLKKILNSEYTLGGVLNW | not soluble |
